Biological target: low density lipoprotein receptor (LDLR) expressed on HEK293 cells transfected with LDLR modified mRNA (mRNA SEQ ID NO: 21463) (human) (UniProt P01130)
Assay: Flow cytometry (FACS): increasing amounts of BODIPY-LDL on HEK293 cells transfected with LDLR mRNA, 1.0 h at 37 C

Sequence of low density lipoprotein receptor (LDLR) expressed on HEK293 cells transfected with LDLR modified mRNA (mRNA SEQ ID NO: 21463) (human) (P01130 22-860): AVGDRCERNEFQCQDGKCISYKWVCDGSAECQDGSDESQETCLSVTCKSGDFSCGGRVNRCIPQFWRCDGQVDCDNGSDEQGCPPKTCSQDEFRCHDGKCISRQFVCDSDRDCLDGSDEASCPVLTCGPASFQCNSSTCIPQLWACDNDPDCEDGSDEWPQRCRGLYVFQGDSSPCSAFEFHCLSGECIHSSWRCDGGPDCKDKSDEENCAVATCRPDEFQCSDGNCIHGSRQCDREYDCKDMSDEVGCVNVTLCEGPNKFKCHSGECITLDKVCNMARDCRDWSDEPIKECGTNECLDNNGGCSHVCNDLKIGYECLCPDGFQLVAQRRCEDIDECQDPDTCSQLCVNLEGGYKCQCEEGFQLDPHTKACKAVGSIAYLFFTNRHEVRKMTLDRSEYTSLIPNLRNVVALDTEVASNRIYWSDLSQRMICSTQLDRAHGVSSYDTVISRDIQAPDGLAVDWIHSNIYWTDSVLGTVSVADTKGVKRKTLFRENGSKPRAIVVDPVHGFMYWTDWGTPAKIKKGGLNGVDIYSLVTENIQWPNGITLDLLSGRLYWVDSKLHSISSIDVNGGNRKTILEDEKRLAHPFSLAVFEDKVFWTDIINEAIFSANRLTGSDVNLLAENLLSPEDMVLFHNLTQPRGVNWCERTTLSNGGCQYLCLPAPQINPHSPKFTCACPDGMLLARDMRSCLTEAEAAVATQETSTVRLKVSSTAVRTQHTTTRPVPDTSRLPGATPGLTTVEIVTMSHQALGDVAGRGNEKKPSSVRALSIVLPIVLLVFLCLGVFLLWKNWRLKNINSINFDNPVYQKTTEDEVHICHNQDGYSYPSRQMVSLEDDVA

BODIPY-labeled LDL (low density lipoprotein) (from UniProt P04114 28-4563) (ligand)
Kd: 0.06 µg/mL

Source: US20160075733A1
